Here are results for ten molecules from US20210324054A1.

B1: WT (recombinant anti-dengue virus NS1 7F8 antibody of Example 2) (antibody, mouse IgG1, kappa, V domains shown)
VH: EVQLQQPGPELVKPGASVKMSCKASGYTVTSYVIHWVRQKPGQGLEWIGYMNAYNDGIKYNEKFIGKAILTSDKSSSTAYMQLSSLTSEDSAVYYCTKEGLFYVMDYWGQGTSVTVSS
VL: QIVLTQSPAIMSASPGEKVTMTCSATSSISYMHWYQQKSGTSPKRWIYDTSKLASPVPVRFSGSGSGTSYSLTISSMEAEDAATYFCQYWRSDLPTFGAGTKLELKR
B2: Mutation 1 (antibody, V domains shown)
VH: B1 VH with V29F, Y32T, A53P, I58L
VL: B1 VL with P56G, Y89Q
B3: Mutation 3 (antibody, V domains shown)
VH: B1 VH with V29L, Y32T, A53K, I58L, E62P
VL: B1 VL with A25V, P56C, Y89Q, D93Q
B4: Mutation 2 (antibody, V domains shown)
VH: B1 VH with V29F, Y32T, A53G, I58L, E62N
VL: B1 VL with P56A, Y89Q
B5: Mutation 1-18 (antibody, V domains shown)
VH: B1 VH with V29F, Y32T, A53P, I58L, M105F
VL: B1 VL with I29L, T50S, P56G
B6: Mutation 1-17 (antibody, V domains shown)
VH: B1 VH with V29F, A53P
VL: B1 VL with I29V, T50S, P56G, Y89W
B7: Mutation 1-19 (antibody, V domains shown)
VH: B1 VH with V29F, Y32S, A53P, K98R
VL: B1 VL with I29V, P56G, Y89Q
B8: Mutation 1-21 (antibody, V domains shown)
VH: B1 VH with V29F, Y32T, A53P, K98R
VL: B1 VL with I29L, P56G, Y89W
B9: Mutation 1-20 (antibody, V domains shown)
VH: B1 VH with V29F, A53P, I58L, M105F
VL: B1 VL with T50S, P56G
B10: Mutation 1-22 (antibody, V domains shown)
VH: B1 VH with V29F, Y32S, A53P, I58L, K98R, M105F
VL: B1 VL with I29V, T50S, P56G, Y89W

Residue numbers refer to the chain shown, from its start.

One test concerns the target Antigen DN-IV-Ag# (Fapon Biotech Inc.) (dengue virus). The test can be described thus: indirect ELISA on coated DN-IV-Ag#, antibody diluted 3 times.
B1 had an OD450 (reference 630 nm) of 1.18 OD.
The same measure, in the same setting: the figure for B2 is 1.39 OD.
As for B3, the OD450 (reference 630 nm) stood at 0.347 OD.
Same read-out and setting: the figure for B4 is 1.48 OD.

For the next test the target is unchanged. Briefly: indirect ELISA on coated DN-IV-Ag#, antibody diluted 9 times.
B1 came in with an OD450 (reference 630 nm) of 0.781 OD.
Consider B2, for which the OD450 (reference 630 nm) was 1.07 OD.
The molecule B3 showed an OD450 (reference 630 nm) of 0.062 OD.
On to B4, for which the OD450 (reference 630 nm) came to 1.05 OD.

A further test has the same target. The test can be described thus: indirect ELISA on coated DN-IV-Ag#, antibody diluted 729 times.
B1 returned an OD450 (reference 630 nm) of 0.211 OD.
In the case of B2, the OD450 (reference 630 nm) is 0.111 OD.
Same read-out and setting: the figure for B4 is 0.157 OD.

Another test addresses DN-IV quality control recombinant protein (produced by the company) (dengue virus). The test can be described thus: BLI, antibody on AMC sensor.
As to B1, the Kd was 3.15 nM, the koff worked out at 0.000139 s⁻¹ and the kon was 44200 M⁻¹ s⁻¹.
As to B2, the Kd is 2.85 nM, the koff stood at 0.000126 s⁻¹ and the kon was 44200 M⁻¹ s⁻¹.
Consider B5, for which the dissociation constant Kd came out at 0.572 nM, the koff stood at 0.000243 s⁻¹ and the kon is 425000 M⁻¹ s⁻¹.
On to B6, for which the Kd turned out to be 2.52 nM, the koff was 0.000114 s⁻¹ and the association rate constant (kon) worked out at 45200 M⁻¹ s⁻¹.
Take B7: the Kd came out at 2.41 nM, the koff stood at 0.000113 s⁻¹ and the kon turned out to be 46800 M⁻¹ s⁻¹.
In the case of B8, the Kd stood at 0.693 nM, the koff was found to be 0.000269 s⁻¹ and the kon was 388000 M⁻¹ s⁻¹.
Turning to B9, the equilibrium dissociation constant (Kd) worked out at 3.53 nM, the koff was 0.000161 s⁻¹ and the kon is 45600 M⁻¹ s⁻¹.
In the case of B10, the Kd was 0.59 nM, the koff is 0.000245 s⁻¹ and the association rate constant (kon) stood at 415000 M⁻¹ s⁻¹.

The target of the next test is Antigen DN-IV-Ag# (Fapon Biotech Inc.) (dengue virus). The test can be described thus: indirect ELISA on coated DN-IV-Ag#, antibody diluted 81 times.
The molecule B1 showed an OD450 (reference 630 nm) of 0.24 OD.
B2: the OD450 (reference 630 nm) is 0.203 OD.
B4 showed an OD450 (reference 630 nm) of 0.216 OD.

The target is the same in another test. Briefly: indirect ELISA on coated DN-IV-Ag#, antibody initial.
B1 displayed an OD450 (reference 630 nm) of 1.42 OD.
Still for that read-out and setting: for B2 the value was 1.61 OD; for B3, 0.923 OD.
B4 showed an OD450 (reference 630 nm) of 1.59 OD.

For the next test the target is unchanged. Briefly: indirect ELISA on coated DN-IV-Ag#, antibody diluted 27 times.
B1 yielded an OD450 (reference 630 nm) of 0.398 OD.
Same read-out and setting: for B2 the value was 0.445 OD.
Turning to B4, the OD450 (reference 630 nm) came to 0.578 OD.

Another test shares this target. The test can be described thus: indirect ELISA on coated DN-IV-Ag#, antibody diluted 243 times.
The molecule B1 came in with an OD450 (reference 630 nm) of 0.2 OD.
Take B2: the OD450 (reference 630 nm) stood at 0.103 OD.
B4 had an OD450 (reference 630 nm) of 0.11 OD.
